Source: US20150259684

Target: T1, NM Cas9 (Neisseria meningitidis) (UniProt C9X1G5)
T1 sequence: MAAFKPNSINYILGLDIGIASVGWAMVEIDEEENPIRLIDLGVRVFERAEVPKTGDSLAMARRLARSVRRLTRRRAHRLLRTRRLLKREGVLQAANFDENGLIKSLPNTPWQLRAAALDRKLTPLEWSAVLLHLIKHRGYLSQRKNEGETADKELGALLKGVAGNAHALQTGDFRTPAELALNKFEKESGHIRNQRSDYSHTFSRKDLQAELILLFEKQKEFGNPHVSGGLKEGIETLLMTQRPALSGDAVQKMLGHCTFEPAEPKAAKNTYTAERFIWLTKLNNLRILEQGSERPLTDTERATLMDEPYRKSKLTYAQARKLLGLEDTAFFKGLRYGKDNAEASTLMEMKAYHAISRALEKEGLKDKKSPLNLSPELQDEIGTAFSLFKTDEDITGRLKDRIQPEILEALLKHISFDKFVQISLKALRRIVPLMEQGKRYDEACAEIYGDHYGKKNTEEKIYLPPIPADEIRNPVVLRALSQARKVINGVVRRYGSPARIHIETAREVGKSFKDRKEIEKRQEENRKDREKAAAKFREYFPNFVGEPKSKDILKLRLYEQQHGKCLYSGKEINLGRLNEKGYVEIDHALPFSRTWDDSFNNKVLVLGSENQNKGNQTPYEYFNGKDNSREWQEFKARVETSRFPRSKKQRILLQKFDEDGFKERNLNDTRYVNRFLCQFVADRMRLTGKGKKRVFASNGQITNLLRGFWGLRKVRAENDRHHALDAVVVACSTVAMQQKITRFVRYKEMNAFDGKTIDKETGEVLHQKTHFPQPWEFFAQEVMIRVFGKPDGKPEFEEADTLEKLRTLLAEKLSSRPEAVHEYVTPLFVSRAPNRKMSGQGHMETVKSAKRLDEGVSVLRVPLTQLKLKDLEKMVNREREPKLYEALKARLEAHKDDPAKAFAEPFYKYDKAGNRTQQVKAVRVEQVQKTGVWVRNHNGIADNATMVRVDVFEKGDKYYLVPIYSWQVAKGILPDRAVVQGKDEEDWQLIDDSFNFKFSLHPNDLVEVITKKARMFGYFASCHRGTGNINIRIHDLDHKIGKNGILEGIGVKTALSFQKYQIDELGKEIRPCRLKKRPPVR
Experiment: cell_activity
Settings: PAM NCCAGGTN depleted only 4-fold; protospacer for this value not stated

UACCAUCUCAAGCUUGUUGAGUUGUAGCUCCCUUUCUCAUUUCGCAGUGCUACAAU / TACCATCTCAAGCTTGTTGANCCAGGTN / NACCTGGNTCAACAAGCTTGAGATGGTA
activity (fold depletion): 4
